Reference: article PMC7875338 (ACS synthetic biology, 2021)

Target: beta-galactosidase (β-gal), negative control expressed in HEK293T cells (Escherichia coli K12 lacZ, assumed, UniProt P00722 = β-galactosidase)
Test: immunostaining of cells or tissue

Sequence of beta-galactosidase (β-gal), negative control expressed in HEK293T cells (P00722 whole entry): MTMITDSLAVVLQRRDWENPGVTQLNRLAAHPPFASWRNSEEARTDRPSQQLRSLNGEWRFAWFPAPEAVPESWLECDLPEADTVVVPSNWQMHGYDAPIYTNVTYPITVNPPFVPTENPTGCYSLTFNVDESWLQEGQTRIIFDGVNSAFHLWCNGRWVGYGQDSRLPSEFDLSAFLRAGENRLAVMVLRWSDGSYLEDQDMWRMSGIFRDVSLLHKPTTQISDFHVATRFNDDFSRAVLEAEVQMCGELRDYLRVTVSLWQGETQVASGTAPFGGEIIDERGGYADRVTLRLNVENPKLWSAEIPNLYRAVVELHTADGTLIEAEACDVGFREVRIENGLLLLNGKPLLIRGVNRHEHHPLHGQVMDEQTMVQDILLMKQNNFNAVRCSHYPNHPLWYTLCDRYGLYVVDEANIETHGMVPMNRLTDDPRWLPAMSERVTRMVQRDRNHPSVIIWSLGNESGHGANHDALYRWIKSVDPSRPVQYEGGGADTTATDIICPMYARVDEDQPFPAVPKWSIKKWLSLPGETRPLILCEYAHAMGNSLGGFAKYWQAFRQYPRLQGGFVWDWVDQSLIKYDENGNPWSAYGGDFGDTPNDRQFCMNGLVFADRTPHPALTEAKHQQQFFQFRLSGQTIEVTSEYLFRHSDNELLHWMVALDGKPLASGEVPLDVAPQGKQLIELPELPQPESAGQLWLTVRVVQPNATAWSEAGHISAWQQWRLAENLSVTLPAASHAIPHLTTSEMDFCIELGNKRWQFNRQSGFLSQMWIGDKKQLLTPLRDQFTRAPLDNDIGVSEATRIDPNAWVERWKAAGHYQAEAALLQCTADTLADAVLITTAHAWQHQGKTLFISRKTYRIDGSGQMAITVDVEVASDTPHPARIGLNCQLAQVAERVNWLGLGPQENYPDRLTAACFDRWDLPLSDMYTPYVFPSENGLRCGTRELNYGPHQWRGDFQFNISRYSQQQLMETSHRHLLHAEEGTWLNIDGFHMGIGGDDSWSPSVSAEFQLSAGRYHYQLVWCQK

| Binder | binding result |
| --- | --- |
| sdAb WuN1-APEX2 fusion protein (VHH) VHH: QVKLQQSGGGLVQAGGSLRLSCAPSGRTFSVNAMGWYRQAPGKQREPVALISTGGSTNYADSVKGRFTITRDNVKNTVYLQMNTLKPEDTAVYYCYTERWKPRGIERDWGQGTQVTVSS | no binding (tested: 100 nM) |
| sdAb WuN3-APEX2 fusion protein (VHH) VHH: KVKLQQSGGGLVQTGGSLRLSCAPSGRTFSVNAMGWYRQAPGKQREPVALISTGGSTNYADSVKGRFTISRDNVKNTVYLQMNTLKPEDTAVYYCYTERWKPRGIERDWGQGTQVTVSS | no binding (tested: 100 nM) |
